Measurements: patent publication US20130004513A1

Target: Human CD4 on CD4+CD25+ regulatory T cells of healthy donors (human) (UniProt P01730)
Experiment: cell-based or functional assay

Negative control (antibody) was tested, and the % Inh2 was 7%, the % Inh3 was 5.2% and the Avg. % inhibition was 5.1%.
